Experimental data reported in patent publication US20260242419A1, “A CYCLIC PEPTIDE FOR TRAPPING INTERLEUKIN-1 BETA” (Merck Sharp & Dohme LLC, priority 2023, published 2026).
Starred links: 1 amine or outer side, 2 acyl side, 3 side chain; linkers in the order of their positions; H or OH if unused. Non-standard residues stand in square brackets, D forms with d. dPro(4R-(4-pyridylmethyl)) = O=C(O)[C@H]1C[C@@H](Cc2ccncc2)CN1; Ala(piperidin-4-yl) = O=C([C@H](CC1CCN([*:3])CC1)N[*:1])[*:2]; Trp(βS-Me,4-F) = C[C@@H](c1c[nH]c2cccc(F)c12)[C@H](N)C(=O)O; Bip(4'-COOH) = N[C@@H](Cc1ccc(-c2ccc(C(=O)O)cc2)cc1)C(=O)O; Ala(1-bicyclo(1.1.1)pentyl) = N[C@@H](CC12CC(C1)C2)C(=O)O; dPro(4R-Bzl(4-F)) = O=C(O)[C@H]1C[C@@H](Cc2ccc(F)cc2)CN1; Ala(morpholin-4-yl) = N[C@@H](CN1CCOCC1)C(=O)O; Ala(piperazin-1-yl) = N[C@@H](CN1CCNCC1)C(=O)O; Phe(4-COOH) = N[C@@H](Cc1ccc(C(=O)O)cc1)C(=O)O; Pro(cis-4-F) = O=C(O)[C@@H]1C[C@H](F)CN1; d(αMeS) = C[C@@](N)(CO)C(=O)O; αMeK = C[C@](N)(CCCCN)C(=O)O; Dab = NCC[C@H](N)C(=O)O; Aib = CC(C)(N)C(=O)O

B1: SEQ ID NO: 175 (peptide)
peptide: cyclo([Bip(4'-COOH)][Ala(1-bicyclo(1.1.1)pentyl)][Phe(4-COOH)]G[Pro(cis-4-F)][Trp(βS-Me,4-F)][Aib]SW[αMeK][Ala(piperazin-1-yl)]QSG[dPro(4R-Bzl(4-F))])
modifications: ring closure inferred; not fully specified (bridges); printed as Bip4CO2H-AlaPent-Phe4COOH-G-Proc4F-SbMeW4F-Aib-S-W-aMeK-AlaPiperaz-Q-S-G-dProc4Bn4F, cyclic (macrolactam)
B2: SEQ ID NO: 173 (peptide)
peptide: cyclo([Bip(4'-COOH)][Ala(1-bicyclo(1.1.1)pentyl)][Phe(4-COOH)]G[Pro(cis-4-F)][Trp(βS-Me,4-F)][Aib]SW[αMeK][Ala(morpholin-4-yl)]QSG[dPro(4R-Bzl(4-F))])
modifications: ring closure inferred; not fully specified (bridges); printed as Bip4CO2H-AlaPent-Phe4COOH-G-Proc4F-SbMeW4F-Aib-S-W-aMeK-AlaMph-Q-S-G-dProc4Bn4F, cyclic (macrolactam)
B3: SEQ ID NO: 176 (peptide)
peptide: cyclo([Bip(4'-COOH)][Ala(1-bicyclo(1.1.1)pentyl)][Phe(4-COOH)]G[Pro(cis-4-F)][Trp(βS-Me,4-F)][Aib]EW[Aib][Ala(piperidin-4-yl)]QSG[dPro(4R-(4-pyridylmethyl))])
modifications: ring closure inferred; not fully specified (bridges); printed as Bip4CO2H-AlaPent-Phe4COOH-G-Proc4F-SbMeW4F-Aib-E-W-Aib-AlaPip4-Q-S-G-dProc4CH24Pal, cyclic (macrolactam)
B4: SEQ ID NO: 178 (peptide)
peptide: cyclo([Bip(4'-COOH)][Ala(1-bicyclo(1.1.1)pentyl)][Phe(4-COOH)]G[Pro(cis-4-F)][Trp(βS-Me,4-F)][Aib]EW[d(αMeS)][Ala(piperidin-4-yl)]QSG[dPro(4R-(4-pyridylmethyl))])
modifications: ring closure inferred; not fully specified (bridges); printed as Bip4CO2H-AlaPent-Phe4COOH-G-Proc4F-SbMeW4F-Aib-E-W-daMeS-AlaPip4-Q-S-G-dProc4CH24Pal, cyclic (macrolactam)
B5: SEQ ID NO: 174 (peptide)
peptide: cyclo([Bip(4'-COOH)][Ala(1-bicyclo(1.1.1)pentyl)][Phe(4-COOH)]G[Pro(cis-4-F)][Trp(βS-Me,4-F)][Aib]SW[αMeK][Ala(morpholin-4-yl)]Q[Dab]G[dPro(4R-Bzl(4-F))])
modifications: ring closure inferred; not fully specified (bridges); printed as Bip4CO2H-AlaPent-Phe4COOH-G-Proc4F-SbMeW4F-Aib-S-W-aMeK-AlaMph-Q-Dab-G-dProc4Bn4F, cyclic (macrolactam)
B6: SEQ ID NO: 177 (peptide)
peptide: cyclo([Bip(4'-COOH)][Ala(1-bicyclo(1.1.1)pentyl)][Phe(4-COOH)]G[Pro(cis-4-F)][Trp(βS-Me,4-F)][Aib]EW[d(αMeS)][Ala(morpholin-4-yl)]QSG[dPro(4R-(4-pyridylmethyl))])
modifications: ring closure inferred; not fully specified (bridges); printed as Bip4CO2H-AlaPent-Phe4COOH-G-Proc4F-SbMeW4F-Aib-E-W-daMeS-AlaMph-Q-S-G-dProc4CH24Pal, cyclic (macrolactam)

Biological target: Recombinant human IL-1β (BioLegend 579404) (human, UniProt P01584 117-269)
Assay: cell-based or functional assay

| Binder | MRC5 IC50 [pM] |
| --- | --- |
| B1 | 37 |
| B2 | 37 |
| B3 | 36 |
| B4 | 41 |
| B5 | 25 |
| B6 | 31 |
